# Test results taken from publication PMC9769556.
# What was measured:
# [1] = tested on: DrDprA (Deinococcus radiodurans R1 (ATCC 13939)); test: EMSA; details: EMSA: 10 mM Tris-HCl pH 7.5, 50 mM NaCl, 1 mM DTT, 10 min at 37 C, 2 nM 32P probe
# [2] = biological target: DNA processing protein A of Deinococcus radiodurans (DrDprA), purified recombinant wild type (D. radiodurans); test: SPR; 2.5 uM DrDprA immobilised on a bare gold sensor chip by EDC-NHS chemistry at 20 C (Autolab Esprit); DrRecA 0.5 to 3 uM in the mobile phase, 20 mM Tris pH 7.6, 1 mM MgCl2
Molecule,Kd [1],Kd [2]
167-mer ssDNA,3.04 µM,
167-bp dsDNA,3.53 µM,
"RecA of Deinococcus radiodurans (DrRecA), purified (natural protein) MSKDATKEISAPTDAKERSKAIETAMSQIEKAFGKGSIMKLGAESKLDVQVVSTGSLSLDLALGVGGIPRGRITEIYGPESGGKTTLALAIVAQAQKAGGTCAFIDAEHALDPVYARALGVNTDELLVSQPDNGEQALEIMELLVRSGAIDVVVVDSVAALTPRAEIEGDMGDSLPGLQARLMSQALRKLTAILSKTGTAAIFINQVREKIGVMYGNPETTTGGRALKFYASVRLDVRKIGQPTKVGNDAVANTVKIKTVKNKVAAPFKEVELALVYGKGFDQLSDLVGLAADMDIIKKAGSFYSYGDERIGQGKEKTIAYIAERPEMEQEIRDRVMAAIRAGNAGEAPALAPAPAAPEAAEA",,0.293 µM
